The nature of this series: steady-state kinetics, released Ang I immunoassay. The note with it: glycan lost; control: fully glycosylated WT AGT.

These results are taken from PMC6378967.

B1: angiotensinogen (AGT): N14Q (protein)
parent chain: MAPAGVSLRATILCLLAWAGLAAGDRVYIHPFHLVIHNESTCEQLAKANAGKPKDPTFIPAPIQAKTSPVDEKALQDQLVLVAAKLDTEDKLRAAMVGMLANFLGFRIYGMHSELWGVVHGATVLSPTAVFGTLASLYLGALDHTADRLQAILGVPWKDKNCTSRLDAHKVLSALQAVQGLLVAQGRADSQAQLLLSTVVGVFTAPGLHLKQPFVQGLALYTPVVLPRSLDFTELDVAAEKIDRFMQAVTGWKTGCSLMGASVDSTLAFNTYVHFQGKMKGFSLLAEPQEFWVDNSTSVSVPMLSGMGTFQHWSDIQDNFSVTQVPFTESACLLLIQPHYASDLDKVEGLTFQQNSLNWMKKLSPRTIHLTMPQLVLQGSYDLQDLLAQAELPAILHTELNLQKLSNDRIRVGEVLNSIFFELEADEREPTESTQQLNKPEVLEVTLNRPFLFAVYDQSATALHFLGRVANPLSTA
In the case of B1, the “other: proteolytic processing, kcat_Km” value was “increases, 0.64 ± 0.03 vs 0.25 ± 0.01, 0.64 ± 0.03 (252%)”.

B2: angiotensinogen (AGT): N4 (protein)
parent chain: B1 parent chain
Turning to B2, the “other: proteolytic processing, kcat_Km” value was “increases, 0.65 ± 0.08 vs 0.25 ± 0.01, 0.65 ± 0.08 (255%)”.
